Molecular target: myc-tagged Trpc1 (transient receptor potential canonical subfamily member 1) (X. laevis)
Assay: co-IP; mRNAs co-injected into 4-cell stage X. laevis embryos (200 pg/cell each); 12 animal caps (stage 8-9) lysed in SOFT buffer (50 mM Tris pH 7.4, 100 mM NaCl, 5 mM EDTA, 0.05% NP40, 1% Triton X100); 120 µg protein precipitated with anti-HA or anti-Myc antibodies and A/G protein beads; blots with anti-HA and anti-Myc; animal caps with or without 2 µg/mL noggin for 15 min before lysis

Substance “HA-tagged BMP receptor type II, full length” has a fold change of the co-immunoprecipitated fraction with noggin against without noggin of 1.64 fold.
